The values that follow come from patent publication US10131702B2, “Glucagon-GLP-1-GIP triple agonist compounds” (priority 2013, dated 2018).

Common to all, as to assay: cell-based or functional assay
In assay [1] the target is T1, human GIP receptor (human, UniProt P48546 22-466).
T1 sequence: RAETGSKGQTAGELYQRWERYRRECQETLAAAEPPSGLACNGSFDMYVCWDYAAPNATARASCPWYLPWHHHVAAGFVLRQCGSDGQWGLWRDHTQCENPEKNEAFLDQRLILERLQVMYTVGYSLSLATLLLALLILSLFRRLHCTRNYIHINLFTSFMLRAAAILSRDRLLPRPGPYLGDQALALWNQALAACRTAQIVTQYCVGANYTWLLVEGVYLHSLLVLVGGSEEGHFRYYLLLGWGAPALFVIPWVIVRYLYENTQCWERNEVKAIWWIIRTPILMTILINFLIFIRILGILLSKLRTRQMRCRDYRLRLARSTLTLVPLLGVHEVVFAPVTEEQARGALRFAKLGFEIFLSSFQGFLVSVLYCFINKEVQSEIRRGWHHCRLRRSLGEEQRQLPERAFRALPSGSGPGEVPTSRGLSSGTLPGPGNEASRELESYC

Assay [2] deals with T2, human glucagon-like peptide 1 receptor (human, UniProt P43220 24-463).
The target of assay [3] is T3, human glucagon receptor (human, UniProt P47871 26-477).
The target in assay [4] is T1, human GIP receptor. This is another data set of the same source.
The target of assay [5] is T2, human glucagon-like peptide 1 receptor. This is another data set of the same source.
For assay [6], the target named is T3, human glucagon receptor. This is another data set of the same source.

Like-named read-outs stand apart in the source and are kept apart here.

T3 sequence (P47871 26-477): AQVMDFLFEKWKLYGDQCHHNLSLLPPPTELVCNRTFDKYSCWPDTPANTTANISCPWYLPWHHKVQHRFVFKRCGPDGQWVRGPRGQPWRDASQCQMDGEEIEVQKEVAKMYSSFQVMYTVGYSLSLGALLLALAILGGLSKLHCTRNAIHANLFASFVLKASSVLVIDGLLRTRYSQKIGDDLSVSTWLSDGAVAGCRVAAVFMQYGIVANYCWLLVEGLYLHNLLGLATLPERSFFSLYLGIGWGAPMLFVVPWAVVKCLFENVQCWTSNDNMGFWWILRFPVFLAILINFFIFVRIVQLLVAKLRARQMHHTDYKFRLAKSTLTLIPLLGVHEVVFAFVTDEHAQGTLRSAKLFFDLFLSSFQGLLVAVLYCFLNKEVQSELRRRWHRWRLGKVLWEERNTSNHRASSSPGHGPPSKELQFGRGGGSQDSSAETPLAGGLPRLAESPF

B1: Compound 19 (peptide)
peptide: YAQGTFTSDYSIYLDKKAAHDFVEWLLSA
HELM: PEPTIDE1{Y.[Aib].Q.G.T.F.T.S.D.Y.S.I.Y.L.D.K.K.A.A.H.D.F.V.E.W.L.L.S.A.[am]}$$$$V2.0
SMILES: CC[C@H](C)[C@H](NC(=O)[C@H](CO)NC(=O)[C@H](Cc1ccc(O)cc1)NC(=O)[C@H](CC(=O)O)NC(=O)[C@H](CO)NC(=O)[C@@H](NC(=O)[C@H](Cc1ccccc1)NC(=O)[C@@H](NC(=O)CNC(=O)[C@H](CCC(N)=O)NC(=O)C(C)(C)NC(=O)[C@@H](N)Cc1ccc(O)cc1)[C@@H](C)O)[C@@H](C)O)C(=O)N[C@@H](Cc1ccc(O)cc1)C(=O)N[C@@H](CC(C)C)C(=O)N[C@@H](CC(=O)O)C(=O)N[C@@H](CCCCN)C(=O)N[C@@H](CCCCN)C(=O)N[C@@H](C)C(=O)N[C@@H](C)C(=O)N[C@@H](Cc1c[nH]cn1)C(=O)N[C@@H](CC(=O)O)C(=O)N[C@@H](Cc1ccccc1)C(=O)N[C@H](C(=O)N[C@@H](CCC(=O)O)C(=O)N[C@@H](Cc1c[nH]c2ccccc12)C(=O)N[C@@H](CC(C)C)C(=O)N[C@@H](CC(C)C)C(=O)N[C@@H](CO)C(=O)N[C@@H](C)C(N)=O)C(C)C
For B1, the “EC50 (cAMP induction)” value with human GIP receptor [1] was 0.032 nM; in assay [2], 0.013 nM; with human glucagon receptor [3] it was 0.024 nM; in the assay with human GIP receptor [4] it was 0.013 nM; in assay [5], 0.024 nM; with human glucagon receptor [6], 0.024 nM.

B2: Compound 20 (peptide)
peptide: YAQGTFTSDYSIYLEKKAAKEFVEWLLSA
HELM: PEPTIDE1{Y.[Aib].Q.G.T.F.T.S.D.Y.S.I.Y.L.E.K.K.A.A.K.E.F.V.E.W.L.L.S.A.[am]}$$$$V2.0
SMILES: CC[C@H](C)[C@H](NC(=O)[C@H](CO)NC(=O)[C@H](Cc1ccc(O)cc1)NC(=O)[C@H](CC(=O)O)NC(=O)[C@H](CO)NC(=O)[C@@H](NC(=O)[C@H](Cc1ccccc1)NC(=O)[C@@H](NC(=O)CNC(=O)[C@H](CCC(N)=O)NC(=O)C(C)(C)NC(=O)[C@@H](N)Cc1ccc(O)cc1)[C@@H](C)O)[C@@H](C)O)C(=O)N[C@@H](Cc1ccc(O)cc1)C(=O)N[C@@H](CC(C)C)C(=O)N[C@@H](CCC(=O)O)C(=O)N[C@@H](CCCCN)C(=O)N[C@@H](CCCCN)C(=O)N[C@@H](C)C(=O)N[C@@H](C)C(=O)N[C@@H](CCCCN)C(=O)N[C@@H](CCC(=O)O)C(=O)N[C@@H](Cc1ccccc1)C(=O)N[C@H](C(=O)N[C@@H](CCC(=O)O)C(=O)N[C@@H](Cc1c[nH]c2ccccc12)C(=O)N[C@@H](CC(C)C)C(=O)N[C@@H](CC(C)C)C(=O)N[C@@H](CO)C(=O)N[C@@H](C)C(N)=O)C(C)C
B2: the “EC50 (cAMP induction)” value amounted to 0.047 nM with human GIP receptor [1]; 0.0094 nM in assay [2]; 0.057 nM with human glucagon receptor [3]; 0.009 nM with human GIP receptor [4]; 0.057 nM in assay [5]; 0.057 nM with human glucagon receptor [6].
